B1: ATP-binding cassette sub-family C member 2 (Rattus norvegicus) (protein)
chain: MDKFCNSTFWDLSLLESPEADLPLCFEQTVLVWIPLGFLWLLAPWQLYSVYRSRTKRSSITKFYLAKQVFVVFLLILAAIDLSLALTEDTGQATVPPVRYTNPILYLCTWLLVLAVQHSRQWCVRKNSWFLSLFWILSVLCGVFQFQTLIRALLKDSKSNMAYSYLFFVSYGFQIVLLILTAFSGPSDSTQTPSVTASFLSSITFSWYDRTVLKGYKHPLTLEDVWDIDEGFKTRSVTSKFEAAMTKDLQKARQAFQRRLQKSQRKPEATLHGLNKKQSQSQDVLVLEEAKKKSEKTTKDYPKSWLIKSLFKTFHVVILKSFILKLIHDLLVFLNPQLLKLLIGFVKSSNSYVWFGYICAILMFAVTLIQSFCLQSYFQHCFVLGMCVRTTVMSSIYKKALTLSNLARKQYTIGETVNLMSVDSQKLMDATNYMQLVWSSVIQITLSIFFLWRELGPSILAGVGVMVLLIPVNGVLATKIRNIQVQNMKNKDKRLKIMNEILSGIKILKYFAWEPSFQEQVQGIRKKELKNLLRFGQLQSLLIFILQITPILVSVVTFSVYVLVDSANVLNAEKAFTSITLFNILRFPLSMLPMVTSSILQASVSVDRLERYLGGDDLDTSAIRRVSNFDKAVKFSEASFTWDPDLEATIQDVNLDIKPGQLVAVVGTVGSGKSSLVSAMLGEMENVHGHITIQGSTAYVPQQSWIQNGTIKDNILFGSEYNEKKYQQVLKACALLPDLEILPGGDMAEIGEKGINLSGGQKQRVSLARAAYQDADIYILDDPLSAVDAHVGKHIFNKVVGPNGLLAGKTRIFVTHGIHFLPQVDEIVVLGKGTILEKGSYRDLLDKKGVFARNWKTFMKHSGPEGEATVNNDSEAEDDDDGLIPTMEEIPEDAASLAMRRENSLRRTLSRSSRSSSRRGKSLKNSLKIKNVNVLKEKEKEVEGQKLIKKEFVETGKVKFSIYLKYLQAVGWWSILFIILFYGLNNVAFIGSNLWLSAWTSDSDNLNGTNNSSSHRDMRIGVFGALGLAQGICLLISTLWSIYACRNASKALHGQLLTNILRAPMRFFDTTPTGRIVNRFSGDISTVDDLLPQTLRSWMMCFFGIAGTLVMICMATPVFAIIIIPLSILYISVQVFYVATSRQLRRLDSVTKSPIYSHFSETVTGLPIIRAFEHQQRFLAWNEKQIDINQKCVFSWITSNRWLAIRLELVGNLVVFCSALLLVIYRKTLTGDVVGFVLSNALNITQTLNWLVRMTSEAETNIVAVERISEYINVENEAPWVTDKRPPADWPRHGEIQFNNYQVRYRPELDLVLKGITCNIKSGEKVGVVGRTGAGKSSLTNCLFRILESAGGQIIIDGIDVASIGLHDLRERLTIIPQDPILFSGSLRMNLDPFNKYSDEEVWRALELAHLRSFVSGLQLGLLSEVTEGGDNLSIGQRQLLCLGRAVLRKSKILVLDEATAAVDLETDSLIQTTIRKEFSQCTVITIAHRLHTIMDSDKIMVLDNGKIVEYGSPEELLSNRGSFYLMAKEAGIENVNHTEL
B2: ATP-binding cassette sub-family C member 2 (Homo sapiens) (protein)
chain: MLEKFCNSTFWNSSFLDSPEADLPLCFEQTVLVWIPLGYLWLLAPWQLLHVYKSRTKRSSTTKLYLAKQVFVGFLLILAAIELALVLTEDSGQATVPAVRYTNPSLYLGTWLLVLLIQYSRQWCVQKNSWFLSLFWILSILCGTFQFQTLIRTLLQGDNSNLAYSCLFFISYGFQILILIFSAFSENNESSNNPSSIASFLSSITYSWYDSIILKGYKRPLTLEDVWEVDEEMKTKTLVSKFETHMKRELQKARRALQRRQEKSSQQNSGARLPGLNKNQSQSQDALVLEDVEKKKKKSGTKKDVPKSWLMKALFKTFYMVLLKSFLLKLVNDIFTFVSPQLLKLLISFASDRDTYLWIGYLCAILLFTAALIQSFCLQCYFQLCFKLGVKVRTAIMASVYKKALTLSNLARKEYTVGETVNLMSVDAQKLMDVTNFMHMLWSSVLQIVLSIFFLWRELGPSVLAGVGVMVLVIPINAILSTKSKTIQVKNMKNKDKRLKIMNEILSGIKILKYFAWEPSFRDQVQNLRKKELKNLLAFSQLQCVVIFVFQLTPVLVSVVTFSVYVLVDSNNILDAQKAFTSITLFNILRFPLSMLPMMISSMLQASVSTERLEKYLGGDDLDTSAIRHDCNFDKAMQFSEASFTWEHDSEATVRDVNLDIMAGQLVAVIGPVGSGKSSLISAMLGEMENVHGHITIKGTTAYVPQQSWIQNGTIKDNILFGTEFNEKRYQQVLEACALLPDLEMLPGGDLAEIGEKGINLSGGQKQRISLARATYQNLDIYLLDDPLSAVDAHVGKHIFNKVLGPNGLLKGKTRLLVTHSMHFLPQVDEIVVLGNGTIVEKGSYSALLAKKGEFAKNLKTFLRHTGPEEEATVHDGSEEEDDDYGLISSVEEIPEDAASITMRRENSFRRTLSRSSRSNGRHLKSLRNSLKTRNVNSLKEDEELVKGQKLIKKEFIETGKVKFSIYLEYLQAIGLFSIFFIILAFVMNSVAFIGSNLWLSAWTSDSKIFNSTDYPASQRDMRVGVYGALGLAQGIFVFIAHFWSAFGFVHASNILHKQLLNNILRAPMRFFDTTPTGRIVNRFAGDISTVDDTLPQSLRSWITCFLGIISTLVMICMATPVFTIIVIPLGIIYVSVQMFYVSTSRQLRRLDSVTRSPIYSHFSETVSGLPVIRAFEHQQRFLKHNEVRIDTNQKCVFSWITSNRWLAIRLELVGNLTVFFSALMMVIYRDTLSGDTVGFVLSNALNITQTLNWLVRMTSEIETNIVAVERITEYTKVENEAPWVTDKRPPPDWPSKGKIQFNNYQVRYRPELDLVLRGITCDIGSMEKIGVVGRTGAGKSSLTNCLFRILEAAGGQIIIDGVDIASIGLHDLREKLTIIPQDPILFSGSLRMNLDPFNNYSDEEIWKALELAHLKSFVASLQLGLSHEVTEAGGNLSIGQRQLLCLGRALLRKSKILVLDEATAAVDLETDNLIQTTIQNEFAHCTVITIAHRLHTIMDSDKVMVLDNGKIIECGSPEELLQIPGPFYFMAKEAGIENVNSTKF

Tests used:
Type in all cases: functional, cell membranes, HEK293, Membrane vesicle
[1] = substrate: C=CC1=C(C)/C(=C/c2[nH]c(Cc3[nH]c(/C=C4\NC(=O)C(C)=C4C=C)c(C)c3CCC(=O)O[C@@H]3O[C@@H](C(=O)O)[C@H](O)[C@@H](O)[C@@H]3O)c(CCC(=O)O[C@@H]3O[C@H](C(=O)O)[C@H](O)[C@H](O)[C@@H]3O)c2C)NC1=O; assay: (§1) TP_TRANSPORTER: uptake in membrane vesicles from Mrp2-expressing HEK cells
[2] = substrate: C=CC1=C(C)/C(=C/c2[nH]c(Cc3[nH]c(/C=C4\NC(=O)C(C)=C4C=C)c(C)c3CCC(=O)O[C@@H]3OC(C(=O)O)[C@@H](O)C(O)C3O)c(CCC(=O)O)c2C)NC1=O; assay: as §1
[3] = substrate: C=CC1=C(C)/C(=C/c2[nH]c(Cc3[nH]c(/C=C4\NC(=O)C(C)=C4C=C)c(C)c3CCC(=O)O[C@@H]3O[C@@H](C(=O)O)[C@H](O)[C@@H](O)[C@@H]3O)c(CCC(=O)O[C@@H]3O[C@H](C(=O)O)[C@H](O)[C@H](O)[C@@H]3O)c2C)NC1=O; assay: (§2) TP_TRANSPORTER: uptake in membrane vesicles from MRP2-expressing HEK cells
[4] = substrate: C=CC1=C(C)/C(=C/c2[nH]c(Cc3[nH]c(/C=C4\NC(=O)C(C)=C4C=C)c(C)c3CCC(=O)O[C@@H]3OC(C(=O)O)[C@@H](O)C(O)C3O)c(CCC(=O)O)c2C)NC1=O; assay: as §2

Row | Protein | Km [1] | Km [2] | Km [3] | Km [4]
1 | B1 | 0.5 µM | 0.8 µM | – | –
2 | B2 | – | – | 0.9 µM | 0.7 µM

Source: ChEMBL document CHEMBL2074447, “Transport of monoglucuronosyl and bisglucuronosyl bilirubin by recombinant human and rat multidrug resistance protein 2” (Hepatology, 1999)
